Reference: patent publication US20220235136A1, “METHODS AND COMPOSITIONS FOR TREATING A DISEASE OR DISORDER” (YALE UNIVERSITY, priority 2019, published 2022)

Target: human IGF1R on transfected CHO cells (human), P08069
Test: flow cytometry, IGFBP7-Ig on IGF1R transfected CHO cells (CHO-WT: 3.52)
Settings: remark: other sources report otherwise

Sequence of human IGF1R on transfected CHO cells (human), P08069 (P08069 31-1367): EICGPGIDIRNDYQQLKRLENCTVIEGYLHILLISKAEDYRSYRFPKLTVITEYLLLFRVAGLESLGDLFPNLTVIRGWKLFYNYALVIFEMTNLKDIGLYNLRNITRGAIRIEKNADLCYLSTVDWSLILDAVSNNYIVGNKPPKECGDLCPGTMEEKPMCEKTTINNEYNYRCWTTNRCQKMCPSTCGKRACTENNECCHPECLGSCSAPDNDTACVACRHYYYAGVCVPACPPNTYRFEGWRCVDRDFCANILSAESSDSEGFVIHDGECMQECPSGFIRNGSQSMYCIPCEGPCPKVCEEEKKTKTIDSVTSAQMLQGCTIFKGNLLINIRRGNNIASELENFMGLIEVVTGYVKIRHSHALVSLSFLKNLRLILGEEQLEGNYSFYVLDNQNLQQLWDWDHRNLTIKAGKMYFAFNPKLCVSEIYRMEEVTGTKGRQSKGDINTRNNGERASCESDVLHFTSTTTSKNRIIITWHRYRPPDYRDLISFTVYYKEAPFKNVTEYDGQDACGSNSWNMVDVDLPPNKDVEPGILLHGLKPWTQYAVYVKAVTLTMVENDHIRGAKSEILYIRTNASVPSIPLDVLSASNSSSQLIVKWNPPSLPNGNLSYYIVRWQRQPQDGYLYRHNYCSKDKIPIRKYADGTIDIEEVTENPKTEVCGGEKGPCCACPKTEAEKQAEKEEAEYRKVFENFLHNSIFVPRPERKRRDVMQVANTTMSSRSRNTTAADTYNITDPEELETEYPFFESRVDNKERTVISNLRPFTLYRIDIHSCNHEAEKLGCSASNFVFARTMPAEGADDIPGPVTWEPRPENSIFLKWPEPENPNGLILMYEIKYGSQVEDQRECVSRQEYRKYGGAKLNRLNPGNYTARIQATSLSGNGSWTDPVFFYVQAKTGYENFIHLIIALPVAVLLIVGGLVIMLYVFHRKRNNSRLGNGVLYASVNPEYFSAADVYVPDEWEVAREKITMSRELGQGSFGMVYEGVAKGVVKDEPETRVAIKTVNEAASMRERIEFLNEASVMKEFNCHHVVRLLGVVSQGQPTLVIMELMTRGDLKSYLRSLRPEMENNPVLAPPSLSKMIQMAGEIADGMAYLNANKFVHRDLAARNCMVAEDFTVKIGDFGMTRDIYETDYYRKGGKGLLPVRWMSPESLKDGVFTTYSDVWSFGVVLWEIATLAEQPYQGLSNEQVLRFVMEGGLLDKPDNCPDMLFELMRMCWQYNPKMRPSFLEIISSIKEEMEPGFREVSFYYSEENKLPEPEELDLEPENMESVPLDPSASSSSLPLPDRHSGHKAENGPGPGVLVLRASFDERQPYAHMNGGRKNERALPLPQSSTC

number printed above the gate of the dot plot (share of cells in the gate; unit not given): 2.04
B1: Human IGFBP7 (Fc-tag), Sino Biological, Q16270 27-282 (Fc fusion, not shown: a dimerising Fc or GST)
chain: SSSDTCGPCEPASCPPLPPLGCLLGETRDACGCCPMCARGEGEPCGGGGAGRGYCAPGMECVKSRKRRKGKAGAAAGGPGVSGVCVCKSRYPVCGSDGTTYPSGCQLRAASQRAESRGEKAITQVSKGTCEQGPSIVTPPKDIWNVTGAQVYLSCEVIGIPTPVLIWNKVKRGHYGVQRTELLPGDRDNLAIQTRGGPEKHEVTGWVLVSPLSKEDAGEYECHASNSQGQASASAKITVVDALHEIPVKKGEGAEL
